Consider two molecules from publication PMC9431562, “A Cytoplasmic NAD(P)H-Dependent Polysulfide Reductase with Thiosulfate Reductase Activity from the Hyperthermophilic Bacterium Thermotoga maritima” (Microbiology Spectrum, 2022).

Usually Km stands for the concentration of substrate that gives half-maximal velocity.

For series [1], the target named is T1, NSR (Thermotoga maritima, UniProt Q9WYL1).
T1 construct: gene TM_0379; full-length ORF amplified from genomic DNA, pET-24b(+) BamHI/XhoI, His-tagged, E. coli BL21; about 50 kDa by SDS-PAGE; FAD flavoprotein; purified anaerobically
T1 sequence (Q9WYL1 1-443): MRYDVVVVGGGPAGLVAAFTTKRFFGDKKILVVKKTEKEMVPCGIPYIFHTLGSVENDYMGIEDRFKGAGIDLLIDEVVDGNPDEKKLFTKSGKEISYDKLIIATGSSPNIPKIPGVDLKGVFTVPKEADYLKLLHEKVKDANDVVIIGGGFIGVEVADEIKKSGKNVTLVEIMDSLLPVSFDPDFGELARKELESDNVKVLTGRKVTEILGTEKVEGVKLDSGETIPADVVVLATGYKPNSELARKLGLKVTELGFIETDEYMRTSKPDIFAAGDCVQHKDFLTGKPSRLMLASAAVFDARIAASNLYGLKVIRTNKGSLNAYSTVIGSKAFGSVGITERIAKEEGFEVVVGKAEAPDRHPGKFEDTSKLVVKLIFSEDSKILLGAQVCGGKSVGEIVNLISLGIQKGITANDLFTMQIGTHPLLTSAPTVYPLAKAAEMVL
The experiment in a line: thin-layer chromatography of cofactor. It counts as binding. The conditions noted are these: as-purified recombinant enzyme.

Substrate in series [2]: NC(=O)C1=CN([C@@H]2O[C@H](COP(=O)(O)OP(=O)(O)OC[C@H]3O[C@@H](n4cnc5c(N)ncnc54)[C@H](O)[C@@H]3O)[C@@H](O)[C@H]2O)C=CC1
Kind of series: purified protein. It counts as biochemical, Thermotoga maritima. Particulars: co-substrate S^0, 50 mM phosphate pH 7.0, 45 °C, anaerobic, table cell does not tell whether CoA was present.

Substrate in series [3]: NC(=O)C1=CN([C@@H]2O[C@H](COP(=O)(O)OP(=O)(O)OC[C@H]3O[C@@H](n4cnc5c(N)ncnc54)[C@H](OP(=O)(O)O)[C@@H]3O)[C@@H](O)[C@H]2O)C=CC1
Kind of series: purified protein. It counts as biochemical, Thermotoga maritima. The conditions noted are these: co-substrate S^0, 50 mM phosphate pH 7.0, 45 °C, anaerobic, table cell does not tell whether CoA was present.

Substrate in series [4]: O=S(O)(O)=S
The experiment in a line: purified protein. It counts as biochemical, Thermotoga maritima. The conditions noted are these: co-substrate NADH, 50 mM phosphate pH 7.0, 45 °C, anaerobic, table cell does not tell whether CoA was present.

Regarding `Cc1cc2nc3c(=O)[nH]c(=O)nc-3n(C[C@H](O)[C@H](O)[C@H](O)COP(=O)(O)OP(=O)(O)OC[C@H]3O[C@@H](n4cnc5c(N)ncnc54)[C@H](O)[C@@H]3O)c2cc1C` [FAD], in series [1], the “thin-layer chromatography of cofactor” value is on record as “Thin-layer chromatography analysis showed that it binds FAD as its cofactor”.

B1: NSR (Thermotoga maritima MSB8) (protein)
chain: T1 sequence (Q9WYL1 1-443)
notes: full-length ORF amplified from genomic DNA, pET-24b(+) BamHI/XhoI, His-tagged, E. coli BL21; about 50 kDa by SDS-PAGE; FAD flavoprotein; purified anaerobically
As to B1, the Km came to 50 ± 6.3 µM in series [2], 80 ± 21.2 µM in series [3] and 10 ± 1.2 µM in series [4].
